The values that follow come from patent US20210101944A1 (WEST CHINA HOSPITAL SICHUAN UNIVERSITY, published 2021).

Changes are numbered by the printed parent chain.

By Kd is commonly meant the constant that tells how readily two partners part at equilibrium. Usually EC50 (read off the curve) stands for the concentration that produces a half-maximal response. Lower therefore signals an effect from little substance.

In test [1] the target is T1, death receptor fusion protein DR5-Fc (UniProt O14763 56-182, limits assumed).
T1 construct: Captured on a protein A-coated BLI probe; also called TRAIL R2; not shown: Fc part
Put plainly: Biolayer interferometry, DR5-Fc captured on a protein A probe, IgBD-TRAIL01 at 10-500 nM. On the technique in general: In BLI a coated tip is dipped into the sample, and binding shifts an interference pattern.

The target of test [2] is T2, death receptor fusion protein DR4-Fc (UniProt O00220 24-239, limits assumed).
T2 construct: Captured on a protein A-coated BLI probe; also called TRAIL R1; not shown: Fc part
Description: BLI, DR4-Fc on protein A-coated probe; IgBD-TRAIL01 to DR4-Fc.

Test [3] deals with T3, Human IgG (human).
T3 construct: also called hIgG
Put plainly: ELISA, coated hIgG, pH 7.4, detection with biotin-labeled anti-TRAIL antibody and HRP-streptavidin.
Description: 1) ELISA Human IgG (hIgG) or mouse IgG (mIgG) was coated in a well plate for ELISA. […] After incubating at 37° C. for 1 h, excess protein was removed.

Test [4] deals with T1, death receptor fusion protein DR5-Fc. Description: BLI, DR5-Fc on protein A-coated probe; IgBD-TRAIL01 to DR5-Fc.
Description: (§1) The binding constant Ka and the dissociation constant Kd were determined, and then the affinity KD was calculated according to the formula (KD=Kd/Ka).
For test [5] the target is unchanged. Put plainly: BLI, DR5-Fc on protein A-coated probe (method of Example 3).
Description: as §1
Test [6] deals with T2, death receptor fusion protein DR4-Fc. Description: BLI, DR4-Fc on protein A-coated probe (method of Example 3).
Description: as §1
Test [7] has the same target. Description: BLI, DR4-Fc on protein A-coated probe; TRAIL01 to DR4-Fc.
Description: as §1
In test [8] the target is T1, death receptor fusion protein DR5-Fc. Description: BLI, DR5-Fc on protein A-coated probe; TRAIL01 to DR5-Fc.
Description: as §1
Test [9] has the same target. Put plainly: Biolayer interferometry, DR5-Fc captured on a protein A probe, TRAIL01 at 5-250 nM.
Description: as §1

T1 sequence (O14763 56-182 limits assumed): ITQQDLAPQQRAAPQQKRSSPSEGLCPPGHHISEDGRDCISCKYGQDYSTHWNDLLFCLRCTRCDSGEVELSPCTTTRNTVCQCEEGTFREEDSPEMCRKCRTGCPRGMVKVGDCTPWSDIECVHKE
T2 sequence (O00220 24-239 limits assumed): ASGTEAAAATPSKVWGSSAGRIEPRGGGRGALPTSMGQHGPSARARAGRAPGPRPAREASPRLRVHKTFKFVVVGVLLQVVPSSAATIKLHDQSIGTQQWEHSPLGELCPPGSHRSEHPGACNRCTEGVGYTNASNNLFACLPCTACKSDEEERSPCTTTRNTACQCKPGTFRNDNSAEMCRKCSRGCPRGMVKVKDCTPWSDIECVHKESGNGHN

B1: fusion protein IgBD-TRAIL01 (other)
chain: TTYKLVINGKTLKGETTTKAVDAETAAAAFAQYARRNGVDGVWTYDDATKTFTVTEGGGGSGGGGSGGGGSVRERGPQRVAAHITGTRGRSNTLSSPNSKNEKALGRKINSWESSRSGHSFLSNLHLRNGELVIQEKGFYYIYSQTYFRFQEEIKENTKNDKQMVQYIYKYTSYPDPILLMKSARNSCWSKDAEYGLYSIYQGGLFELKKDDRIFVSVTNEHLIDMDHEASFFGAFLVG
notes: also called IgBD-TRAIL1
Take B1: the Kd in [1] was 1.5 nM; in test [2], 4.33 nM; in test [4], 1.43 nM. Further, the “EC50 (read off the curve)” value in test [3] is about 0.4 nM.

B2: fusion protein IgBD-TRAIL02 (other)
chain: B1 chain with A27E, A28K, A31K, R35N, R36D
notes: No tag is stated
Take B2: the results for the dissociation constant Kd in test [5] and in [6] were 1.79 nM and 3.96 nM, respectively.

B3: TRAIL01 (ligand)
chain: VRERGPQRVAAHITGTRGRSNTLSSPNSKNEKALGRKINSWESSRSGHSFLSNLHLRNGELVIQEKGFYYIYSQTYFRFQEEIKENTKNDKQMVQYIYKYTSYPDPILLMKSARNSCWSKDAEYGLYSIYQGGLFELKKDDRIFVSVTNEHLIDMDHEASFFGAFLVG
notes: Control protein without IgBD; also called TRAIL1
For the molecule B3, the dissociation constant Kd was found to be 4 nM in test [7], 1.5 nM in [8] and 1.43 nM in [9].
